Source: a protein production outcome set (Wang et al. 2014)

Test: label from the status in PepcDB records
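Note: failed if final PepcDB status was selected cloned or expressed and not failed if soluble or beyond.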

Sequence | protein production
ERREKKNKIMQAKEDFKKMMEEAKFNPRATFSEFAAKHAKDSRFKAIEKMKDREALFNEFVAAARKKEKE | not failed
ETTMPASRSLVDKPVHRFEIIPWNGKKVGYLMYNEFKAGPTTDSQAYNDDLRRAFRDFQTGGVNEFVLDLRYNTGGSLDCAQLLCTMLAPADKMNQLLALLRYSDKRVEANQDLTFNPELIQSGANLNLSTVYVLTTNATRGAAEMVINCLNPYMKVVLIGTKTAGEYVATKPFVHPTDRFILNLVVCNVYNAEEKSDYATGFKPTYEYNEDSYLSTYLPFGNTNETLLNAALKIMSGITDK | failed
EVILGDGIFPLTALAVGKDDRAFAVIRTAGGQAPHPDVDFPELSSTGLLLSSLKPADRALLPEGTPDREVSIDLGGQMMPYEWRILTDGQSSSATVQEGQRLRMVMRNRTMMPHPMHIHGHTWALPGSGGLRKDTVLLRHGETMIADLIADNPGEWAFHCHNAYHMETGMLSSLRYE | failed
EVKEEDAFYSKKCKLFYKKDNEFKEKGIGTLHLKPTANQKTQLLVRADTNLGNILLNVLIPPNMPCTRTGKNNVLIVCVPNPPIDEKNATMPVTMLIRVKTSEDADELHKILLEKKDA | not failed
EVLLETLNATELNETTASLAVHQTMKENGQLFVSNSMAIRYLDRFMDSRPYRMFGNRGINGIDGIVSTALGMSAIAPTQQNVLLIGDLALYHDMNGLFLAKRYQLPLTIVLLNNNGGGIFSFLSQRTLREDDFEPLFGTPLDLDFSLVAELYGASYQEVKTIAELKQILQAAAEEPQFQVIEVKGNRQEN | not failed
EVLPDGVINVLGASNCPSKGIDRGGVIDLDAAVNSIQRAIEQAESVSNCQIMGVTLAISGQHITALNESGVIPLSGTVVRKEDIDAAIHIAHSIKLPDG | failed
EVNAAMNDGVICDMFEGHTPFKPRYVLPDYARYLQQGSEYLELSPAQDLDEALNALTILYHHVPSVTNIPVYLGQLDDILMPFVEGMDADALYRKLKLFWIMLDRTLPDAFMHVNLGPTDNIVCRTLLRIDAELKQVAPNLTFMYDPAVTPDELLQIATTNICQCSKPHIANYPQHASAFDACGFGIVSCYNALPLAGGANTLVRLNLKEVALKATSINDFFERVLPYYCSLTFELIEARSAFLHQESHFFDSFLVKEQLIDESRFAPMFGIYGMAEAVNILQAQMTSETDKSSQSNKPTGYGHSMDANQLGYRISAALDTIVKSTPVTYGYHGRALLHSQGGISLDKGVTPGVRIPYGTEPNPIAHIQALAQHHQYYTAGISDILTIDETVKSNPQAMFQLCKAALELGFREFTANVASNDLMRVTGYMVKRSDIEAFKQ | failed
EVPDLPEEPSETAEEVVTVALRCPNGRVLRRRFFKSWNSQVLLDWMMKVGYHKSLYRLSTSFPRRALEVEGGSSLEDIGITVDTVLNVEEKEQSSQ | not failed
EVTGSVSLEALEEVQVGENLEVGVGIDELVNAEAFAYDFTLNYDENAFEYVEAISDDGVFVNAKKIEDGKVRVLVSSLTGEPLPAKEVLAKVVLRAEAKAEGSNLSVTNSSVGDGEGLVHEIAGTEKTVNIIE | not failed
FAFVYEAQDVGSGREYALKRLLSNEEEKNRAIIQEVCFMKKLSGHPNIVQFCSAASIGKEESDTGQAEFLLLTELCKGQLVEFLKKMESRGPLSCDTVLKIFYQTCRAVQHMHRQKPPIIHRDLKVENLLLSNQGTIKLCDFGSATTISHYPDYSWSAQRRALVEEEITRNTTPMYRTPEIIDLYSNFPIGEKQDIWALGCILYLLCFRQHPFEDGAKLRIVNGKYSIPPHDTQYTVFHSLIRAMLQVNPEERLSIAEVVHQLQEIAAARNVNPKSPITELLEQNGGYGSAT | failed
FEERSGVVPCGTPWGQWYQTLEEVFIEVQVPPGTRAQDIQCGLQSRHVALAVGGREILKGKLFDSTIADEGTWTLEDRKMVRIVLTKTKRDAANCWTSLLESEYAADPWVQDQMQRKLTLERFQKENPGFDFSGAEISGNYTKGGPDFSNLEKDGT | not failed
FEPRSLITSDKGFVTMTLESLEEIQDVSCAWKELNRKLSSNAVSQITRMCLLKGNMGVCFDVPTTESERLQAEWHDSDWILSVPA | not failed
FGAEFSSEACRELGFSSNLLCSSCDLLGQFNLLQLDPDCRGCCQEEAQFETKKLYAGAILEVCGUKLGRFPQVQAFVRSDKPKLFRGLQIKYVRGSDPVLKLLDDNGNIAEELSILKWNTDSVEEFLSEKLERI | failed
FGLEGLPKHLKRIPLECLVEAKSYLRQYPQVDSERIGIYGRSKGAELVLAEESIFNDVQCLVLNSPSDVVDEGIIGKWNSHTSSWTHLQKELPYQKFRFRDYLFSKLFRKDFPKDCSARIDIGQMHSPILLLESTVDEIWDASSAIDDIVSHYKGHYITFKKYHETGHMLTVAYQPNHRYRKDWHLLMKESEDSWLATIHFFDRHLK | failed
FGNQKIFVCDARADWTNEFRTCSMFKNVHINRWYVITPSRNLRETQEFVQMCIRTASSMKMNICNPIYEEIPDDRNGTYSQAIDNAAANDPQIVMVVMRS | failed
FHPVYSVQLEQKLVEKFNLKRALISLDQPNTNEQRKQVAALVSSYLNNNLQEGMAVAVGQGQNVAAVADHAGIVTQRNARFVSAIGGTHRSGDIINADHICRRLAKKYGGSSETLYAPAYVNDPSLRSAFMEHATIKETLSQARKAEFALVGIGDMDENSHMVKLGFFTPKEFVEARLNDGIVGDIGGFDFFKLDGTDADTLMRGRVIGLEMEDLRQIPNVVAMASESRKALSIMGALRTGVIDVLATSVSCAMALLNLAENEE | not failed
FLCMIPMFLYDFSSDKVIALIARILYFSDYFIVILFLIFIINSTKYSPFVLENVKRFKVMGCCLLINTIIECINGYNLNTNNIRIFGTDSGGISPLMVISFIFALMCFVIAETFDKAIKIKEDNDLTI | failed

Sequence | protein production
FRLIGKHRLPRVDSAAKSDGSALYTQDMKLPGMLVAVVAHAPRLGAAVARVDDAAARAVPGVRAVVRFGGAALRHAGVAVLATNTWAARAGRDALRIEWDEGP | failed
FRPVMPSRQIVERQPRMLDFRVEYRDRNVDVVLEDTCTVGEIKQILENELQIPVSKMLLKGWKTGDVEDSTVLKSLHLPKNNSLYVLTPDL | failed
GDIEQAAGHVVDGLSHLEVHPDVPDGIRALRERGFRLVTMTNGSSDLSKRLLGRAGLADCFESHLDASGPQRWKPAQAAYQYVVEQVGVRLDEAVLVAVHPWDVDGAQRAGLGGAWLRRDAADYPQVMLPPTYTVGNLRELAETLA | failed
GEKIFVRVTSVGRNNCRVDCYGIEYRVPINEIDYGYIDKVDKYVQVGDVVPAIIKELDIDNNIVVVSIKEAKEDPYLGIVKSLNKG | failed
GFAAYIWGSDFSFEVSAYAVAEREVPVADWVLRRIVPYRKCYGIDPEEFSSYRNAADSEIFMAYLDDQPVGHVVVSTNWNGYAHIDELAVHAPARRHGVARALLDVAQFWSRRKKLPGMMLETQNNNLGACRLYEQCGYVVGGVDHLRYRGIDPQTAEVAIFWYRLFANELE | failed
GGDTELSDSPTLPLNSILAGNCIEILKTLPDNSVDLIFADPPYNLQLSGELFRPEGSRVDAVNNAWDKFDTFAAYDHFTRLWLKEAHRVLKEDGTIWVIGSYHNIFRVGTALQDQGFWILNDIIWRKSNPMPNFKGRRFTNAHETLIWASKSDKSRYVFNYASLKTFNDDLQMRSDWLLPICSGNERLKGENGQKIHPTQKPEALLYRIILASSRPDDVILDPFFGTGTTGVIARHLRRHWIGIEQDPTYIKAAQARIDKAEVF | not failed
GGRAVARTLIQDVTERVRSRKKLEHYREYTDRLLDAIDDLFLVFDEEAKLTRWNDRVVEVTGYADEALGGMEALGFVPEEERERVASQIADGFMTGHAKMDIPLRRADGTTVPYEIAGNLVDRP | failed
GGRGIIRLIKDNKSLTMKNTEVMLHGSSLAFDASTLEIYAALLNGACLSIIDKEDLIDSQTLKEKLKNDHVNRAFFTTPLFNSLCEQDPSVFNELEQVIIGGDRASNKHLKIVMKNSKKTQFYNGYGPTENTVFTTMHNIQYSELEGDIPIGKA | failed
GHHHHHHAIAENLYFQSSRNPEVLWAQRSDKVYLTVALPDAKDISVKCEPQGLFSFSALGAQGERFEFSLELYGKIMTEYRKNVGLRNIIFSIQKEERSWWTRLLKSEEKPAPYIKVDWNKWCDEDEEVNSETASDDESAFVNQDSESSDDDGLLYLPDLEKARNK | failed
GIHMGKIKRRAITEHEKRALRHYFFQLQNRSGQQDLIEWFREKFGKDISQPSVSQILSSKYSYLDNTVEKPWDVKRNRPPKYPLLEAALFEWQVQQGDDATLSGETIKRAAAILWHKIPEYQDQPVPNFSNGWLEGFRKRHILH | not failed
GIHYTSEKDIRQIVRPTIADYWEGKIDEATTYEDLEKLKQELREYRVLDPACGSGNFLYVAYQELKRLERVLLNKIYERRKRFQGEVLQQEEIGIVTPLQFFGMDTNPFAVQLARVTMMIARKIAIDKFGLTEPALPLDSLDQNIVCQDALFNDWPKADAIIGNPPFLGGSRVRLELGDKYVERIFEKFSDVKDKVDFCVYWFRLAHENLNKTGRAGLVGTNSISQGFSRRASLEYIVNNGGIIHDAISTQVWSGQANVHVSLVNWQYLKPPEYVLDHEIVKNINSSLKSETDVSNAVKLK | failed
GLIDESEQRLVDNIFEFEEKKIREIMVPRTDMVCIYESDSEEKILAILKEEGVTRYPVCRKNKDDILGFVHIRDLYNQKINENKIELEEILRDIIYISENLTIDKALERIRKEKLQLAIVVDEYGGTSGVVTIEDILEEIVGEIQ | not failed
GLPAVDSEILEMPPEKADGVVEGIDVNGPKAQLMLRYPDGKREQITLPEQAKLLALVKHVQSKGYPNERFELLTNFPRRKLSHLDYDITLQEAGLCPQETVFVQERN | failed
GLPVAQSTTTLIDALRTHRMAVVQAPPGTGKTTLVPPIAHNVTGGRVIVVAPRRVAVRAAAHHLVQLDQSSCDQPSTHRVGYTIRGERSRGDLVEFVTPGVLLRRLISNPELDGVSAVVVDEVHERQLDTDLVLGMLVELRELRDDLTVIAMSAT | failed
GLTTPLRELVENGFREGRIKIISSTPTLAAGLNLPARRVIIRSYRRYSSDSGMQPIPVLEYKQMAGRAGRPRLDPYGEAVLLAKSYEEFVFLFEKYIEAGAEDIWSKLGTENALRTHILSTISNGFA | failed
GMQGFFFNTRREIFKDKRVREALFYAFDFEWANKNLFFSQYKRTTSFFSNSIYASPPLPSPEEKALLAPYEKSLDERVFKEPYVVPRTDGVDVLGYNLRENLKYAQKLLESTGFSYKNMRLVDKNNKPFSFTLLLNSPAFERLALAFAKNLRVLGIEMKIQRVDLSQYVNRIKSYDFDMIVGVIGQSSFPGNEQRFYFGSLSAKEKGTRNYAGISSKAVDDLIEKIINAKDYKEQLAAIQAMDRVLLWGFYVIPHFYLP | failed
GNQSTSSKGSDTKKEQITVKHQLDKNGTKVPKNPKKVVVFDFGSLDTLDKLGLDDIVAGLPKQVLPKYLSKFKDDKYADVGSLKEPDFDKVAELDPDLIIISARQSESYKEFSKIAPTIYLGVDTAKYMESFKSDAETIGKIFDKEDKVKDELANIDHSIADVKKTAEKLNKNGLVIMANDGKISAFGPKSRYGLIHDVFGVAPADQNIKASTHGQSVSYEYISKTNPDYLFVIDRGTAIGETSSTKQVVENDYVKNVNAVKNGHVIYLDSATWYLSGGGLESMTQMIKEVKDGLEK | not failed
